This note sets out measurements from patent publication US20260103526A1 (OSE IMMUNOTHERAPEUTICS, published 2026).

The target in experiment [1] is T1, Fc-CLEC-1A (recombinant human Fc-CLEC-1 protein, OSE IMMUNOTHERAPEUTICS) (human, Alexa Fluor 488 label in the flow cytometry competition assays).
T1 construct: also called hFc-CLEC; Fc-CLEC1-A488
T1 chain: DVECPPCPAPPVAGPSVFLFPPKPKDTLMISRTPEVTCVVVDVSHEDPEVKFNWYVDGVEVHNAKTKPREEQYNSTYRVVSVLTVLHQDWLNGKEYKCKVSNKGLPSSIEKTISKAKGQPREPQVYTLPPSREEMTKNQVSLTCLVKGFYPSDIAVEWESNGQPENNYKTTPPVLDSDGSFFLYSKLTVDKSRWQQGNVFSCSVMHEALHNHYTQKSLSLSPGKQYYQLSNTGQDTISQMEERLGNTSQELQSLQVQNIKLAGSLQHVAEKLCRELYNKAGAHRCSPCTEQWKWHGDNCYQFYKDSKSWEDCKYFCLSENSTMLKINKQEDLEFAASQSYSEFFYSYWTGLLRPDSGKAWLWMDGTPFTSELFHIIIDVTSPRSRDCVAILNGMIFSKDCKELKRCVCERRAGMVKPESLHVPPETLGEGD
As to the kind of experiment: flow cytometry competition: antibody pre-incubated with A488-labelled human Fc-CLEC-1 (10 µg/mL), then binding to live MC38 cells (ligand m16); % hFc-CLEC-1+ cells normalised on hIgG4. The source says:
(§1) Murine hepatoma Hepa 1.6 or colorectal carcinoma MC38 cell lines were also used in an antagonist assay. […] Finally, cells were fixed with 1% PFA solution and read on a cytometer.
In general terms: A flow cytometer gives signals particle by particle.

Experiment [2] concerns the target T1, Fc-CLEC-1A (recombinant human Fc-CLEC-1 …). The experiment is described as follows: flow cytometry competition: antibody pre-incubated with A488-labelled human Fc-CLEC-1 (10 µg/mL), then binding to live Hepa1.6 cells (ligand m16); % hFc-CLEC-1+ cells normalised on hIgG4.
Excerpt: as §1

Experiment [3] shares this target. As to the kind of experiment: flow cytometry competition; inhibition of Fc-CLEC-1-A488 binding to Hepa 1.6 cells; reference chimeric 14H9.
Excerpt: as §1

Experiment [4] deals with T2, recombinant hCLEC1-His (R&D SYSTEMS reference 1704-CL) (human, UniProt Q8NC01 74-280, limits assumed).
T2 construct: Bought protein; also called CLEC-His; Clec-His; not shown: His tag
T2 sequence: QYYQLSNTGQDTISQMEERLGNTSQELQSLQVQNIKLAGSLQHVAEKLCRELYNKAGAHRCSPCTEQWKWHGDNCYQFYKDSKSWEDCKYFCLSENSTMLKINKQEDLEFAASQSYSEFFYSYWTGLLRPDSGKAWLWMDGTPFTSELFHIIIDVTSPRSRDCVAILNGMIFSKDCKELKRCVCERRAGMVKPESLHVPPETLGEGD
As to the kind of experiment: BLITZ: CLEC-His immobilised on a NINTA biosensor (10 µg/ml), antibody at 20 µg/ml, 120 s association and 120 s dissociation.

Experiment [5] deals with T1, Fc-CLEC-1A (recombinant human Fc-CLEC-1 …). As to the kind of experiment: flow cytometry competition: antibody pre-incubated with A488-labelled Fc-CLEC1 (100 nM), then binding to permeabilised NALM6 cells (CLEC-1 ligand m15); % stained cells. The method, then: Revelation was performed on CYTOFLEX cytometer, values corresponding to percentage of stained cells (%).
To measure competition on NALM6 cells.

The target is the same in experiment [6]. The experiment is described as follows: flow cytometry competition: antibody pre-incubated with A488-labelled Fc-CLEC1 (10 nM), then binding to permeabilised Raji cells (CLEC-1 ligand m15); % stained cells.
In another experiment the target is T3, mice CLEC-1A protein (mouse, UniProt Q8BWY2 73-269, limits assumed).
T3 construct: also called mice orthologue of CLEC-1A
T3 sequence (looked up): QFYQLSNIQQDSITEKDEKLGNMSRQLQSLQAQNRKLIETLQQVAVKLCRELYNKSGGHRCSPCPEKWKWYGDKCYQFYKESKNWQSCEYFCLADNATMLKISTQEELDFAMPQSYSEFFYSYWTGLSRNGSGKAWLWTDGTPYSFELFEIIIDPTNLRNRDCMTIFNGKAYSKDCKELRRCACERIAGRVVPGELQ
As to the kind of experiment: in vitro; assay not given.

The target of experiment [7] is T1, Fc-CLEC-1A (recombinant human Fc-CLEC-1 …). As to the kind of experiment: flow cytometry competition; inhibition of Fc-CLEC-1-A488 binding to Hepa 1.6 or MC38 cells; reference chimeric 11H11.
Excerpt: as §1

For experiment [8] the target is unchanged. As to the kind of experiment: flow cytometry competition; inhibition of Fc-CLEC-1-A488 binding to Hepa 1.6 or MC38 cells; reference chimeric 6C5.
Excerpt: as §1

B1: chimeric 6C5 (antibody, V domains shown)
VH: QVQLQQSGPELVKPGASVKMSCKASGYTFTDYVISWVKQKTGQGLEWIGEIYPGSGNTYYNEKFKGKATLTADKSSSTAYIHLSSLTSEDSAVYFCAGGGSSHFDYWGQGTTLTVSS
VL: not shown
Regarding B1, the EC50 – broadly, the concentration at which the effect is half-maximal – in experiment [1] amounted to 2.81 µg/mL; in experiment [2], 2.44 µg/mL.

B2: chimeric 11H11 (antibody, V domains shown)
VH: QIHLVQSGPELKKPGETVKISCKASGYTFTNFGMNWVKQAPGKGLKWMGWINTNTGEPTYADDFKGRFAFSLETSASTAYLQINNLKNEDTATYFCARGAPAWFTYWGQGTLVTVSA
VL: DIQMTQSPASLSASVGETVTITCRATENIYSYLAWYQQKQGKSPQFLVYNAKTLAEGMPSRFSGSGSGTQFSLKINILQPEDFGTYYCQHHFGTPLTFGAGTKLELKR
Take B2: the EC50 was determined as 2.33 µg/mL in experiment [1] and 2.58 µg/mL in [2].

B3: humanized 14H9 (antibody, V domains shown)
VH: QVQLVESGGGVVQPGRSLRLSCAISGFTLTTYGIHWVRQAPGKGLEWVAVIWSDASTIYASSLKSRFTISKDNTKNTVYLQMTSLRAEDTAVYYCARHGGYYNYFDYWGQGTLVTVSS
VL: DIQMTQSPSSLSASVGDRVTITCHASQNINVWLSWYQQKPGKAPKLLLYKASNLHTGVPSRFSGSGSGTDFTLTISSLQPEDIATYYCQQGQSYWTFGGGTKVEIK
notes: Only variable domains are tied to the antibody
For B3, in [3], the “EC50 ratio, humanized against chimeric counterpart” value (“EC50 ratio, humanized” below) is ≤ 0.5 fold (EC50 humanized / EC50 chimeric). In experiment [4], the Kd (as a rule, the free concentration of one partner at which half of the binding sites on the other are occupied at equilibrium, for simple one-to-one binding) turned out to be 5.4 nM; the koff (commonly a measure of how fast the partners let go of each other) worked out at 0.000419 s⁻¹; the kon (commonly the rate constant with which the complex forms) came out at 77700 M⁻¹ s⁻¹. In addition, the “IC50 (read off the curve)” value in experiment [5] is approximately 3 µg/mL. Further, the “IC50 (read off the curve)” value in [6] is approximately 0.2 µg/mL. Also, the binding result with mice CLEC-1A protein is given as “no binding”. Moreover, the EC50 in experiment [2] was 0.539 µg/mL.

B4: humanized 11H11 (antibody, human IgG4, V domains shown)
VH: QIQLVQSGSELKKPGASVKVSCKASGYTFTNFGMNWVRQAPGQGLEWMGWINTNTGEPTYADDFKGRFVFSLDTSVSTAYLQISSLKAEDTATYFCARGAPAWFTYWGQGTTVTVSS
VL: DIQMTQSPSSLSASVGDRVTITCRASESIYSYLAWYQQKPGKAPKFLIYNAKTLASGVPSRFSGSGSGTDFTLTISSLQPEDFATYYCQHHFGTPLTFGQGTKLEIK
notes: Only variable domains are tied to the antibody; also called hum 11H11
On to B4, for which, in experiment [4], the Kd is 0.301 nM, the koff stood at 7.19e-05 s⁻¹ and the kon was found to be 239000 M⁻¹ s⁻¹. Also, the “EC50 ratio, humanized” value in experiment [7] is ≤ 0.5 fold (EC50 humanized / EC50 chimeric). In addition, the “IC50 (read off the curve)” value in experiment [5] was approximately 3 µg/mL. In experiment [1], the EC50 was 1.33 µg/mL. In the experiment with mice CLEC-1A protein, the binding result is on record as “no binding”. In addition, the EC50 in experiment [2] came to 0.542 µg/mL.

B5: humanized 6C5 (antibody, V domains shown)
VH: QVQLVQSGAEVKKPGSSVKMSCKASGYTFTDYVISWVRQAPGQGLEWMGEIYPGSGNTYYNQKFQGRVTLTADKSTSTAYMELSSLRSEDTAVYYCAGGGSSHFDYWGQGTTVTVSS
VL: EIVLTQSPATLSLSPGERATLSCRASQSVDNHGFSFMNWFQQKPGQAPRLLIYAASNRGTGIPARFSGSGSGTDFTLTISSMEPEDFAVYYCQQSKEVPWTFGGGTKVEIK
notes: as for B3
B5: the “EC50 ratio, humanized” value in experiment [8] is ≤ 0.5 fold (EC50 humanized / EC50 chimeric). In addition, in [4], the Kd was found to be 5.69 nM, the koff worked out at 0.000275 s⁻¹ and the kon worked out at 48300 M⁻¹ s⁻¹. Further, the “IC50 (read off the curve)” value in experiment [5] is approximately 3 µg/mL. Also, the EC50 in [1] was determined as 0.522 µg/mL. Besides, the binding result with mice CLEC-1A protein is reported as “no binding”. The EC50 in experiment [2] stood at 1.06 µg/mL.

B6: chimeric 14H9 (antibody, V domains shown)
VH: QVQLKESGPGLVAPSQSLSITCTISGFSLTTYGIHWVRQPPGKGLEWLVVIWSDGSTIYNSALKSRLSISKDNSKSQVFLKMNSLQTDDTAIYYCARHGGYYNYFDYWGQGTTLTVSS
VL: DIQMNQSPSSLSASLGDTITITCHASQNINVWLSWYQQKPGNIPKLLIYKASNLHTGVPSRFSGSGSGTTFTLTIDSLQPEDIATYYCQQGQSYWTFGGGTKLEIKR
Consider B6, for which the EC50 in experiment [2] was determined as 2.72 µg/mL.
